Laboratory results: US6566104

Target: endogenous ErbB-4 of T47D human breast cancer cells (human) (UniProt Q15303)
Assay: cell-based or functional assay

Chain of UniProt Q15303 (Q15303 26-1308, stated change not applied): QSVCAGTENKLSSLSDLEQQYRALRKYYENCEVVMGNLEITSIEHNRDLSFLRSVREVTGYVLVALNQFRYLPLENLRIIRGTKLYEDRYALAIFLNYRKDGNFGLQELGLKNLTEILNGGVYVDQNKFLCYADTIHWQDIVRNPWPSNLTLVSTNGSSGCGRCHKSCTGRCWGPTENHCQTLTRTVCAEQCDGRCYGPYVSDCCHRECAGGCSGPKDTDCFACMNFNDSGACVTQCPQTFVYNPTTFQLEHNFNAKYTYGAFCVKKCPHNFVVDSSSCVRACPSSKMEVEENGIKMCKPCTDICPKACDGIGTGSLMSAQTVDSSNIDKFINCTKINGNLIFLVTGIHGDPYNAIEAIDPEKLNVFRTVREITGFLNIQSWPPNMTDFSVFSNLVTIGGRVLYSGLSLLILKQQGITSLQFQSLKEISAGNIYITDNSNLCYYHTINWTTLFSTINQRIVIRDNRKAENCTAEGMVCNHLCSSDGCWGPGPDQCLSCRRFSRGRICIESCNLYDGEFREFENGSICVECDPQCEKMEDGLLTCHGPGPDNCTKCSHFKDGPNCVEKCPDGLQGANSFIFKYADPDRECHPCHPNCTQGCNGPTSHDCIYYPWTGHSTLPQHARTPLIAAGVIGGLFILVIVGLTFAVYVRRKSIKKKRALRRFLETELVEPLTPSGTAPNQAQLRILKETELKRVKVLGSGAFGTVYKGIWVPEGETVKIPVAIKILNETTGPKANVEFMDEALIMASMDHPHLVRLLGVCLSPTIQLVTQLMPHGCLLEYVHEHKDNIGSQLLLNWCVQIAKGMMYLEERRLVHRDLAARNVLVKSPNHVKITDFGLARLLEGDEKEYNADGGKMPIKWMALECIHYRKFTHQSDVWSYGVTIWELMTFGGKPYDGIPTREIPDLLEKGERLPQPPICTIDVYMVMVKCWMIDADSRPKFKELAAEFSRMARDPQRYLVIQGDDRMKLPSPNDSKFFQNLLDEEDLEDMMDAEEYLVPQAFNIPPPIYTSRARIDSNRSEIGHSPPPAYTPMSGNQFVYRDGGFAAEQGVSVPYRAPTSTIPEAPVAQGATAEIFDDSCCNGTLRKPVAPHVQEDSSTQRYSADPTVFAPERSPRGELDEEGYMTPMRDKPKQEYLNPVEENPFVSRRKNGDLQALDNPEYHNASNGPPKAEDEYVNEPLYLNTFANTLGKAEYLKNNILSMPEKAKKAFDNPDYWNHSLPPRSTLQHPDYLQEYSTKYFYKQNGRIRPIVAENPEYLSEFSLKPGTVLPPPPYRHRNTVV

colony formation in soft agar, T47D wild type cells treated with neuregulin (FIG. 13): 11 fold
colony formation in soft agar, ribozyme transfected T47D cells (T47D/Rz, ErbB-4 down-regulated): 2.5 fold
Substance: NRG1-α (from UniProt Q02297 177-241) (ligand)
